For one assay, the target named is HLA-A*03:01. Description: IEDB peptide-MHC binding, purified MHC/direct/fluorescence; filed as Kd, often an IC50 or EC50 that approximates it; ≥ and ≤ were set here for values at or beyond the usual limits of such assays.
The target of another assay is HLA-A*32:01. Description: IEDB peptide-MHC binding, purified MHC/competitive/radioactivity; filed as Kd, often an IC50 or EC50 that approximates it; ≥ and ≤ were set here for values at or beyond the usual limits of such assays.
For the next assay, the target named is HLA-A*26:01. The assay is described as above.
The next assay has as its target HLA-A*24:02. The assay is described as above.
In a further assay the target is HLA-A*23:01. The assay is described as above.
A further assay deals with HLA-A*69:01. The assay can be described thus: IEDB peptide-MHC binding, purified MHC/direct/fluorescence; filed as Kd, often an IC50 or EC50 that approximates it; ≥ and ≤ were set here for values at or beyond the usual limits of such assays.
For another assay, the target named is HLA-A*02:01. The assay is described as above.
The target in another assay is HLA-B*58:01. Described as above.
A further assay concerns the target HLA-A*11:01. The assay can be described thus: IEDB peptide-MHC binding, purified MHC/competitive/radioactivity; filed as Kd, often an IC50 or EC50 that approximates it; ≥ and ≤ were set here for values at or beyond the usual limits of such assays. Conditions: source organism: Dengue virus 1 Brazil/97-11/1997.
For a further assay, the target named is HLA-B*15:01. Description: IEDB peptide-MHC binding, purified MHC/direct/fluorescence; filed as Kd, often an IC50 or EC50 that approximates it; ≥ and ≤ were set here for values at or beyond the usual limits of such assays. Conditions: source organism: Homo sapiens.
Another assay addresses HLA-A*02:06. The assay can be described thus: IEDB peptide-MHC binding, purified MHC/competitive/radioactivity; filed as Kd, often an IC50 or EC50 that approximates it; ≥ and ≤ were set here for values at or beyond the usual limits of such assays. Conditions: source organism: Vaccinia virus WR.
In the next assay the target is HLA-A*02:03. The description is as above. Conditions: source organism: Vaccinia virus WR.
Another assay deals with HLA-A*02:02. Described as above. Conditions: source organism: Vaccinia virus WR.
Where [1] appears, read: source organism: Dengue virus 2 Peru/IQT2913/1996.
Where [2] appears, read: source organism: Dengue virus 3 Martinique/1243/1999.
Setting [3] is: source organism: Vaccinia virus WR.
Where [4] appears, read: source organism: Dengue virus 1 Brazil/97-11/1997.
[5] abbreviates: source organism: Dengue virus 4 Philippines/H241/1956.
Setting [6] is: source organism: Burkholderia ambifaria AMMD.
Where [7] appears, read: source organism: Dengue virus 2 Jamaica/1409/1983.
Where [8] appears, read: source organism: Dengue virus 1 Nauru/West Pac/1974.
Setting [9] is: source organism: Giardia lamblia ATCC 50803.

Broadly, the Kd is the concentration at which binding is half-saturated. As to KYLYLWSFK, in the assay with HLA-A*03:01 (source organism: Clostridium botulinum), the dissociation constant Kd is 0.167 µM.
RTAGMIIML: the Kd with HLA-A*32:01 (setting [1]) stood at 0.0965 µM.
Take TVITPMLRH: the equilibrium dissociation constant (Kd) with HLA-A*26:01 (setting [2]) was determined as 14.3 µM.
As for EYVKTRTNDW, the figures for the equilibrium dissociation constant (Kd) with HLA-A*24:02 (setting [1]) and in the assay with HLA-A*23:01 (setting [1]) were 2.17 µM and 3.41 µM, respectively.
On to RSIMGSNNI, for which the Kd in the assay with HLA-A*32:01 (setting [3]) worked out at 0.141 µM.
With GSPGKFWNTT, the equilibrium dissociation constant (Kd) with HLA-A*32:01 (setting [4]) was ≥ 25.7 µM.
YQGKTVWFVP: the dissociation constant (Kd) with HLA-A*32:01 (setting [5]) was 8.5 µM.
On to YLNGGRRGY, for which the Kd with HLA-A*69:01 (setting [6]) and with HLA-A*02:01 (setting [6]) was ≥ 20 µM each time.
With RSCTLPPLRF, the dissociation constant (Kd) with HLA-A*24:02 (setting [4]) came out at 10.7 µM; with HLA-A*23:01 (setting [4]), 2.52 µM.
For the sequence WYMWLGARF, the figures for the Kd with HLA-A*24:02 (setting [7]) and with HLA-A*23:01 (setting [7]) were 0.0162 µM and 0.0202 µM, respectively.
For LFKTNTGTI, in the assay with HLA-A*24:02 (setting [7]), the Kd is 1.28 µM.
Turning to YVIKVSARV, the Kd in the assay with HLA-A*26:01 (source organism: Homo sapiens) was found to be 0.00861 µM.
Take ETLLLLTLLA: the Kd in the assay with HLA-A*26:01 (setting [7]) is ≥ 22.7 µM.
Take DMCDIYLLY: the dissociation constant Kd with HLA-A*24:02 (setting [3]) came out at 2.07 µM; in the assay with HLA-A*23:01 (setting [3]), 0.216 µM.
As to SSVSSFERF, the Kd in the assay with HLA-B*58:01 (source organism: Influenza A virus (A/camel/Mongolia/1982(H1N1))) worked out at 0.0725 µM.
As to IINKFFEVI, the Kd with HLA-A*32:01 (setting [3]) is 0.0111 µM.
In the case of KALKLSWFKK, the Kd with HLA-A*32:01 (setting [4]) was 9.28 µM; with HLA-A*11:01, 0.135 µM.
As for SWALCEALTL, the values for the Kd in the assay with HLA-A*24:02 (setting [2]) and in the assay with HLA-A*23:01 (setting [2]) were 0.5 µM and 0.429 µM, respectively.
For DINFITVNI, the dissociation constant (Kd) in the assay with HLA-A*32:01 (setting [3]) was determined as 0.424 µM.
In the case of GVSGGSWVDI, in the assay with HLA-A*32:01 (setting [7]), the equilibrium dissociation constant (Kd) worked out at 4.31 µM.
FHMDPSGTF: the Kd with HLA-B*15:01 stood at 0.465 µM; with HLA-A*02:01 (source organism: Homo sapiens), 14.4 µM.
IFGTAYGVLF: the figures for the Kd with HLA-A*24:02 (setting [8]) and in the assay with HLA-A*23:01 (setting [8]) were 0.0376 µM and 0.0104 µM, respectively.
For DFKGKTVWF, the Kd in the assay with HLA-A*23:01 (setting [7]) turned out to be 14.4 µM.
For STIANSNII, the dissociation constant Kd with HLA-A*02:06 amounted to 1.24 µM; with HLA-A*02:03, 1.47 µM; with HLA-A*32:01 (setting [3]) it was 0.0143 µM; with HLA-A*02:02, 6.12 µM.
TLYNHHRQY: the dissociation constant (Kd) with HLA-A*03:01 (source organism: Burkholderia mallei) stood at 0.046 µM.
As to GVPPLPLFIF, the Kd with HLA-A*24:02 (setting [2]) stood at 0.494 µM.
For the sequence EVTARWLWGF, the equilibrium dissociation constant (Kd) in the assay with HLA-A*26:01 (source organism: Dengue virus 1 Singapore/S275/1990) turned out to be 0.0327 µM.
For the sequence ITISEDGSM, the dissociation constant Kd with HLA-A*26:01 (setting [7]) is 2.99 µM.
As to EYQKTKNNDW, the Kd with HLA-A*24:02 (setting [4]) is 19.7 µM; with HLA-A*23:01 (setting [4]), ≥ 33.6 µM.
With SLNPYYQSY, the Kd with HLA-A*69:01 (setting [9]) and with HLA-A*02:01 (setting [9]) was ≥ 20 µM each time.
As for NALKINWYKK, the Kd in the assay with HLA-A*32:01 (setting [2]) was 2.14 µM.
For the sequence EAILPEYGTL, the Kd with HLA-A*26:01 (setting [2]) stood at 13.9 µM.
ITINYFLLL: the Kd with HLA-A*32:01 (setting [3]) was ≥ 77.8 µM.
As to EHALLATSIF, the Kd in the assay with HLA-A*26:01 (setting [4]) is ≥ 22.4 µM; in the assay with HLA-A*23:01 (setting [4]), 4.61 µM.
With PLIISTDQDT, the dissociation constant (Kd) with HLA-A*02:06 was ≥ 47.4 µM; in the assay with HLA-A*02:03 it was ≥ 35.6 µM; in the assay with HLA-A*02:02, ≥ 45 µM.
KLALITVSG: in the assay with HLA-A*32:01 (setting [5]), the dissociation constant (Kd) turned out to be 0.0828 µM.
With RVTTELNIV, the Kd with HLA-A*02:06 worked out at 0.0457 µM; with HLA-A*02:03, 0.116 µM; with HLA-A*02:02 it was 2.46 µM.
As for SICEIVYSF, the Kd with HLA-A*32:01 (setting [3]) was 0.000352 µM.
In the case of DIKYDNKLL, the Kd with HLA-A*02:06 is ≥ 77.1 µM; in the assay with HLA-A*02:03, ≥ 49.8 µM; with HLA-A*02:02, 1.42 µM.
On the same counts, the results for ELTNKKYRCM are ≥ 69.8 µM, ≥ 70.4 µM and ≥ 70 µM.
With SLKRFTHTTA, the results for the Kd in the assay with HLA-A*02:06, with HLA-A*02:03 and in the assay with HLA-A*02:02 were 7.32 µM, 0.726 µM and 0.884 µM, respectively.
On the same counts, the results for FISPASISSV are 0.00202 µM, 0.000111 µM and 0.00301 µM.
On the same counts, the results for TINALVYFST are ≥ 62.2 µM, 7.34 µM and 14.1 µM.
On the same counts, the results for IVNTTYDFLA are 0.956 µM, 8.27 µM and 1.25 µM.
Take KINNFANEF: in the assay with HLA-A*32:01 (setting [3]), the Kd was determined as 0.00208 µM.
For RLVDSIVSW, in the assay with HLA-B*58:01 (source organism: Influenza A virus (A/Istanbul/CTF/10/2004(H3N2))), the Kd stood at 0.0491 µM.
Consider PISDYSAEV, for which the Kd worked out at 2.8 µM with HLA-A*02:06, 0.267 µM with HLA-A*02:03 and 0.716 µM with HLA-A*02:02.
On the same counts, the results for FISYNRHNDT are 11.3 µM, 4.93 µM and 6.84 µM.
Consider WNSGYDWITD, for which the dissociation constant Kd in the assay with HLA-A*32:01 (setting [4]) was determined as 4.83 µM.

Source of the values: the Immune Epitope Database (IEDB).
